Laboratory results: paper PMC5897841, “Development of a multipurpose scaffold for the display of peptide loops” (Protein Engineering, Design and Selection, 2017)

Key:
CK2α kinase [1] = target: T1, CK2α kinase (Homo sapiens, UniProt P68400); experiment: Sedimentation velocity AUC, CK2α / RAD-CK2β; type: binding; details: 20°C, 20 mM HEPES pH 7.5, 500 mM NaCl
T1 construct: made in house; host or cells: E. coli BL21(DE3) with pUBS520; pBAT4 plasmid
T1 sequence (P68400 2-329): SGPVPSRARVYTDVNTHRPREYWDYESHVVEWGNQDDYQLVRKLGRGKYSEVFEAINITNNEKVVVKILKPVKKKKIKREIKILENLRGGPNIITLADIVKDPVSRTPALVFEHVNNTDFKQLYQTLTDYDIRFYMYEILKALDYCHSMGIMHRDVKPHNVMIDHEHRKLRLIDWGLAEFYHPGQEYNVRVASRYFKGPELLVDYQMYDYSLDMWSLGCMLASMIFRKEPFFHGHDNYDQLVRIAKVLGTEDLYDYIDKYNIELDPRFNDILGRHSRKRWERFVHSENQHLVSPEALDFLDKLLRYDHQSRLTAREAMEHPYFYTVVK

CK2α kinase [2] = target: T1, CK2α kinase; experiment: Analytical SEC, CK2α / RAD-CK2β; type: binding; details: Superdex 75 5/150, 20 mM HEPES pH 7.5, 500 mM NaCl, calibrated
Procedure: Purified protein samples, either as individual proteins or equimolar mixtures, were separated by analytical SEC over an Superdex 75 5/150 size exclusion column (GE Healthcare) equilibrated with 20 mM HEPES pH 7.5, 500 mM NaCl. Fractions from the peaks from each run were analyzed by SDS-PAGE with purified proteins as standards. The column was calibrated using molecular weight standards (blue dextran, bovine serum albumin, carbonic anhydrase, cytochrome C and aprotonin, Sigma-Aldrich cat. MWGF70) and the calibration curve used to estimate the molecular weights of the three samples (Fig. S5).
Figure S5. MW estimation of CK2α, RAD-CK2β(186-200) and their complexes by SEC Calibration Superdex 75 5/150 HR column
Figure S5. Molecular weight protein standards (Sigma -Aldrich, cat. no. MWGF70, gray diamonds in the plot) were used to calibrate Superdex 75 5/150 column. Blue dextran was used to define the void volume (1.24 ml)and total volume was assumed to be […]. Elution positions of CK2α,(blue […]
main article, were used to estimate the molecular weights of the proteins from the calibration curve. […]

B1: CK2α kinase: Human CK2α kinase (residues 2-329) (protein)
chain: T1 sequence (P68400 2-329)
For B1, the “Sedimentation coefficient (s-value)” value (CK2α kinase [1]; SV AUC, 50 000 rpm, 280 nm, CK2α 6 μM, RAD-CK2β 14.3 μM, complex 5 μM each) was 3.0 S, the “Molar mass from SV AUC” value (CK2α kinase [1]; boundary spreading) was 41.5 kDa and the “Molecular weight equivalent of SEC elution volume” value (CK2α kinase [2]) was 45.7 kDa.
